# According to patent US20240082327:
# Tested on: Fct4 protein (Sendai virus F protein with truncated cytoplasmic domain), uncleaved
substance,measurement,value
trypsin-like enzyme TrypLE,cleavage of Fct4 shown by Western blotting,incubation with a trypsin-like enzyme successfully cleaves Fct4
